Results as given in patent publication US20140295512A1, “Ketol-Acid Reductoisomerases With Improved Performance Properties” (CALIFORNIA INSTITUTE OF TECHNOLOGY, priority 2011, published 2014).

B1: Se1_KARI: Slackia exigua (ATCC 700122) ketol-acid reductoisomerase, wild type, SEQ ID NO: 2 (protein, listed as Slackia exigua)
chain: MSVKTKEKEMAVTILYEQDVDPKVIQGLKVGIIGYGSQGHAHALNLMDSGVDVRVGLREGSSSWKTAEEAGLKVTDMDTAAEEADVIMVLVPDEIQPKVYQEHIAAHLKAGNTLAFAHGFNIHYGYIVPPEDVNVIMCAPKGPGHIVRRQFTEGSGVPDLACVQQDATGNAWDIVLSYCWGVGGARSGIIKATFAEETEEDLFGEQAVLCGGLVELVKAGFETLTEAGYPPELAYFECYHEMKMIVDLMYESGIHFMNYSISNTAEYGEYYAGPKVINEQSREAMKEILKRIQDGSFAQEFVDDCNNGHKRLLEQREAINTHPIETTGAQIRSMFSWIKKED
B2: E. coli IlvC: Escherichia coli ketol-acid reductoisomerase (ilvC), wild type (protein, UniProt P05793 2-491, looked up)
Ketol-acid reductoisomerase …: ANYFNTLNLRQQLAQLGKCRFMGRDEFADGASYLQGKKVVIVGCGAQGLNQGLNMRDSGLDISYALRKEAIAEKRASWRKATENGFKVGTYEELIPQADLVINLTPDKQHSDVVRTVQPLMKDGAALGYSHGFNIVEVGEQIRKDITVVMVAPKCPGTEVREEYKRGFGVPTLIAVHPENDPKGEGMAIAKAWAAATGGHRAGVLESSFVAEVKSDLMGEQTILCGMLQAGSLLCFDKLVEEGTDPAYAEKLIQFGWETITEALKQGGITLMMDRLSNPAKLRAYALSEQLKEIMAPLFQKHMDDIISGEFSSGMMADWANDDKKLLTWREETGKTAFETAPQYEGKIGEQEYFDKGVLMIAMVKAGVELAFETMVDSGIIEESAYYESLHELPLIANTIARKRLYEMNVVISDTAEYGNYLFSYACVPLLKPFMAELQPGDLGKAIPEGAVDNGQLRDVNEAIRSHAIEQVGKKLRGYMTDMKRIAVAG

What was measured:
Assay type in all cases: biochemical
[1] = KARI enzyme assay on cell lysates with NADH and NADPH as cofactors; details: for NADH-Dependent Specific Activity: empty vector control subtracted
Method: In this example, different KARI enzymes (Table 7) were screened for their activity with NADH and NADPH as cofactor. The enzymes were expressed in an S. cerevisiae strain by means of 2 micron plasmids carrying the KARI genes under the control of the S. cerevisiae TDH3 promoter. The transformants were cultivated in shake flask fermentations as described below and samples were taken after 44 h, centrifuged at 4000×g for 10 mins at 4° C. and the cell pellets were stored at −80° C. until analysis. The pellets were lysed by bead beating and the lysates were analyzed by KARI activity assay as described below using NADH and NADPH as cofactors.
Patched cells (or single colonies) grown on YPD+G418 plates at 30° C. were mixed into 3 mL YP+12% dextrose+200 mM MES, pH 6.5+G418, in 14 mL culture tubes and incubated at 250 RPM, 30° C. for ˜24 hours. The cells from the cultures were used to inoculate YP+12% dextrose+200 mM MES, pH 6.5+G418, in non-baffled flasks with a vented grey screw-caps at OD600 0.01. The cultures were incubated at 250 RPM, 30° C. for 24 hours, diluted 1:3 and incubated for another 20 h at 250 RPM, 30° C. Samples for enzyme assay pellets and protein quantification pellets were taken from each shake flask, and cell-free supernatant was used to measure glucose levels in shake flasks.
The assay and no substrate control reactions were performed in triplicate for each sample. The following stock solutions were prepared: 1 M potassium phosphate, pH 7, 0.1 M MgCl2, 100 mM DTT, 25 mM NADH or NADPH, 200 mM 2-acetolactate. The 2-acetolactate was made fresh each time by mixing 50 μL Ethyl-2-acetoxy-2-methylacetoacetate (EAMAA) with 990 μL water. Gradually 260 μL of 2 N NaOH was added in 10 μL increments to the EAMAA water mixture. After each addition the sample was vortexed for 15 seconds, and the procedure repeated until the entire 260 μL of 2 N NaOH was added. Afterwards the solution was mixed on an orbital shaker for 20 min (Krampitz, 1957). KARI reaction buffer (100 μL per reaction) was prepared to the following concentrations: 250 mM potassium phosphate, pH 7, 10 mM MgCl2, 1 mM DTT, 0.2 mM NADH or NADPH, 10 mM 2-acetolactate. For the no substrate controls, the 2-acetolactate was substituted with water. 10 μL of each lysate were transferred into a 96 well half area assay plate. The reaction was started with 90 μL of reaction buffer to each well using a multichannel pipette. The samples were mixed immediately. The samples were read at 340 nm every 10 s for 5 min.

[2] = KARI assay in 100-μL scale to measure pH optimum; details: pH 6.0-8.5, NADPH
Method: Assay buffers were prepared containing 100 mM potassium phosphate with pH values ranging from 6.0-8.5 in 0.5-steps, 1 mM DTT, 10 mM MgCl2, 2.5 mM acetolactate, and 200 μM NADPH (final concentrations). Ten μL purified enzyme were placed into a flat-bottom assay plate (Evergreen Scientific). The reactions were initiated by addition of 90 μL assay buffer. The change in absorbance at 340 nm was monitored over 1 min in a plate reader (TECAN).

[3] = KARI assay in 1-mL scale to measure NADPH KM value (Example 5); details: for Km: Example 5, pH 7.0
Method: (§1) KARI activity was assayed kinetically by monitoring the decrease in NADPH or NADH concentration by measuring the change in absorbance at 340 nm. An assay buffer was prepared containing 100 mM potassium phosphate pH 7.0, 1 mM DTT, 2.5 mM (S)-2-acetolactate, and 10 mM MgCl2 (final concentrations in the 1-mL assay). Twenty μL purified enzyme and 960 μL of the assay buffer were placed into a 1-mL cuvette. The reaction was initiated by addition of 20 μL NADPH or NADH (200 μM final concentration) for a general activity assay. Michaelis-Menten constants for the cofactors were determined with varying concentrations of NADPH or NADH (200-12 μM final).

[4] = KARI assay in 1-mL scale to measure NADH KM value (Example 5); details: for Km: Example 5, pH 7.0
Method: as §1

Row | Molecule | Specific Activity with NADH/Specific Activity with NADPH [1] | NADH-Dependent Specific Activity [1] | optimum pH [2] | optimum pH ([2]; listed as S. exigua KARI) | Km [3] | kcat with NADH ([4]; Example 5) | Km [4] | NADPH KM, times higher than NADPH KM for S. exigua KARI [3] | NADH KM, times higher than NADH KM for S. exigua KARI [4] | Km ([4]; listed as E. coli KARI)
1 | B1 | 0.96 | 0.059 U/mg lysate | 7 | approximately 7.0 | < 1 µM | 0.4 s⁻¹ | 45 ± 10 µM | – | – | –
2 | B2 | 0.175 | 0.04 U/mg lysate | 7.5 | – | 20 ± 3 µM | – | 1000 µM | ~20 fold | 22 fold | ~1000 µM
